Experimental data as given in the supplement of paper PMC9732359.
± gives the uncertainty stated by the source.

Assay: protein stability index of a GFP-peptide fusion (yeast GPS) (PSI 1-4); higher = more stable; sorted into four equal gates, so the index is relative within each strain
In short: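 Plasmids isolated from each sorting gate were PCR-amplified and Illumina-sequenced, and barcodes assigned the reads to strains. The gates, four of equal size, were set by GFP/Cherry fluorescence ratio on mid-log cultures in leucine-free medium. These cultures were yeast carrying a pooled library of tiled 17-residue yeast protein peptides fused downstream of GFP on a plasmid that also expresses Cherry. The protein stability index is the sum of every gate's read frequency times its gate number.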

Row | Sequence | protein stability index (doa10∆) | protein stability index (pdr5∆) | protein stability index (san1∆) | protein stability index (ubr1∆)
1 | TIERSLIEEEVEQDEGQ [YCS4] | 3.36 ± 0.24 | 3.27 ± 0.17 | 3.28 ± 0.084 | 3.5 ± 0.17
2 | PEDAQLLLAANTHLGAR [RPS0A] | 1.63 ± 0.058 | 1.39 ± 0.052 | 1.63 ± 0.12 | 1.9 ± 0.068
3 | FVCLSCSHIFTSDQKNK [RPB9] | 2.43 ± 0.082 | 2.28 ± 0.093 | 2.04 ± 0.11 | 2.55 ± 0.066
4 | MRAKWRKKRTRRLKRKR [RPL41A] | 3.47 ± 0.16 | 3.06 ± 0.13 | 3.34 ± 0.16 | 3.44 ± 0.15
5 | ILERAYKKLDIDGKVIQ [SNF2] | 3.16 ± 0.083 | 3.34 ± 0.076 | 3.05 ± 0.042 | 3 ± 0.058
6 | LDSMIELFKDYKPGSIT [MED1] | 2.15 ± 0.074 | 1.94 ± 0.047 | 1.82 ± 0.1 | 1.99 ± 0.052
7 | EQLKEQMEDMEESINEF [SMC4] | 3.17 ± 0.21 | 3.2 ± 0.1 | 3.17 ± 0.048 | 
8 | IFNGETLEDALRRIITD [GRR1] | 1.96 ± 0.084 | 1.96 ± 0.059 | 2.07 ± 0.07 | 2.07 ± 0.064
9 | DSETSDPNEVEIKKLLA [DIS3] | 2.9 ± 0.075 | 3.07 ± 0.069 | 2.82 ± 0.075 | 3.27 ± 0.094
10 | ALNNAIPGGPKFEPLYP [PRP8] | 3.1 ± 0.069 | 2.96 ± 0.086 | 2.95 ± 0.09 | 3.06 ± 0.046
11 | PESIDTILSSKLSNIWM [SRB2] | 2.72 ± 0.08 | 2.78 ± 0.095 | 2.92 ± 0.054 | 2.91 ± 0.042
12 | LYGKRFFPYYVHTIIAG [PRE7] | 1.15 ± 0.032 | 1.23 ± 0.039 | 1.13 ± 0.11 | 1.14 ± 0.041
13 | QNLRKELLIYKKSQCKK [YIL149C/MLP2] | 1.75 ± 0.078 | 2.35 ± 0.086 | 1.84 ± 0.086 | 1.63 ± 0.068
14 | DRKSIMPLKILLATKQH [CSN12] | 1.9 ± 0.15 | 1.19 ± 0.055 | 1.53 ± 0.11 | 1.42 ± 0.058
15 | IRALQPKLKEGALHFVQ [YIL149C/MLP2] | 2.77 ± 0.074 | 2.06 ± 0.077 | 2.17 ± 0.068 | 2.69 ± 0.071
16 | MTTEDPDSNHLSSETGI [SRB4] | 3.15 ± 0.12 | 2.85 ± 0.2 | 3.37 ± 0.076 | 3.04 ± 0.081
17 | DVSLLLQRDLFIRLPHW [RGR1] | 2.5 ± 0.087 | 2.51 ± 0.063 | 2.2 ± 0.073 | 2.55 ± 0.083
18 | RASIEYYVGQVMRNNES [DIS3] | 3.22 ± 0.067 | 3.21 ± 0.091 | 3.21 ± 0.053 | 3.26 ± 0.063
19 | CNQMENLLESITKLLEI [YCS4] | 3.19 ± 0.083 | 2.8 ± 0.054 | 2.9 ± 0.061 | 2.96 ± 0.059
20 | DLENSPLKTELEANGRS [SSN2] | 3.6 ± 0.094 | 3.59 ± 0.093 | 3.17 ± 0.096 | 3.51 ± 0.089
21 | NHGGSLGKYDLTVIEKL [SRP68] |  |  | 3.53 ± 0.14 | 3.41 ± 0.29
22 | DSVILASSKAVTRGISV [PRE1] | 2.14 ± 0.045 | 2.42 ± 0.048 | 2.28 ± 0.056 | 2.34 ± 0.041
23 | EYYAKKRAFTKKVASAN [RPL16A] | 2.06 ± 0.081 | 1.7 ± 0.063 | 1.69 ± 0.11 | 1.57 ± 0.059
24 | EVFIGRVKDQDGRVNRF [YJR042W/NUP85] | 3.44 ± 0.2 | 3.28 ± 0.28 | 3.5 ± 0.14 | 3.19 ± 0.17
25 | QIQKNGPEITPEEATTI [PRP8] | 2.85 ± 0.26 | 2.98 ± 0.15 | 2.83 ± 0.16 | 3.12 ± 0.16
26 | IIAELSFLKVDPDLGLD [YJL039C/NUP192] | 3.35 ± 0.091 | 3.26 ± 0.086 | 3.23 ± 0.1 | 3 ± 0.095
27 | AFDIELSEFGIKKMLHL [YCS4] | 3.11 ± 0.067 | 3.09 ± 0.088 | 2.67 ± 0.1 | 3.12 ± 0.063
